# Experiments:
# [1] = molecular target: H2 HA A/Singapore/1/1957, recombinant soluble trimer (influenza A virus)
# [2] = molecular target: H14 HA A/mallard duck/Astrakhan/263/1982, recombinant (influenza A virus)
# [3] = molecular target: H5 HA A/Indonesia/05/2005 (H5N1), recombinant (influenza A virus)
# [4] = molecular target: H12 HA A/duck/Alberta/60/1976, recombinant (influenza A virus)
# [5] = molecular target: H9 HA A/Hong Kong/1073/99, recombinant (influenza A virus)
# [6] = molecular target: H7 HA A/Shanghai/2/2013 (H7N9), recombinant uncleaved trimer (influenza A virus)
# [7] = molecular target: H15 HA A/shearwater/Western Australia/2576/1979, recombinant (influenza A virus)
# [8] = molecular target: H3 HA A/Hong Kong/1/1968 (H3N2), recombinant soluble trimer (influenza A virus), Q91MA7; conditions: remark: other sources report otherwise
Binder,EC50 [1],EC50 [2],EC50 relative to wild type rFluA-20 [3],EC50 [4],EC50 [5],EC50 [6],EC50 [7],EC50 [3],EC50 relative to wild type rFluA-20 [1],EC50 relative to wild type rFluA-20 [2],EC50 relative to wild type rFluA-20 [4],EC50 relative to wild type rFluA-20 [5],EC50 relative to wild type rFluA-20 [6],EC50 relative to wild type rFluA-20 [7],EC50 [8]
"rFluA-20 heavy chain mutant Y34A (antibody, V domains shown) VH: QVQLQESGPGLVKPSETLSLTCSVSGVSVTSDIAYWTWIRQPPGKGLEWIGYIFYNGDTNYNPSLKSRVTMSIDTSKNEFSLRLTSVTAADTAVYFCARGTEDLGYCSSGSCPNHWGQGTLVTVSS VL: DIQMTQSPSSLSASIGDRVTITCRPSQNIRSFLNWFQHKPGKAPKLLIYAASNLQSGVPSRFSGSGSGTEFTLTIRSLQPEDFATYYCQQSYNTPPTFGQGTKVEIK",0.11 µg/mL,0.54 µg/mL,> 100 fold,0.05 µg/mL,0.21 µg/mL,0.44 µg/mL,0.1 µg/mL,,,,,,,,
"rFluA-20 heavy chain mutant T96A (antibody, V domains shown) VH: QVQLQESGPGLVKPSETLSLTCSVSGVSVTSDIYYWTWIRQPPGKGLEWIGYIFYNGDTNYNPSLKSRVTMSIDTSKNEFSLRLTSVTAADTAVYFCARGAEDLGYCSSGSCPNHWGQGTLVTVSS VL: DIQMTQSPSSLSASIGDRVTITCRPSQNIRSFLNWFQHKPGKAPKLLIYAASNLQSGVPSRFSGSGSGTEFTLTIRSLQPEDFATYYCQQSYNTPPTFGQGTKVEIK",0.07 µg/mL,0.23 µg/mL,,0.04 µg/mL,0.1 µg/mL,0.37 µg/mL,0.07 µg/mL,0.11 µg/mL,,,,,,,
"rFluA-20 heavy chain mutant E97A (antibody, V domains shown) VH: QVQLQESGPGLVKPSETLSLTCSVSGVSVTSDIYYWTWIRQPPGKGLEWIGYIFYNGDTNYNPSLKSRVTMSIDTSKNEFSLRLTSVTAADTAVYFCARGTADLGYCSSGSCPNHWGQGTLVTVSS VL: DIQMTQSPSSLSASIGDRVTITCRPSQNIRSFLNWFQHKPGKAPKLLIYAASNLQSGVPSRFSGSGSGTEFTLTIRSLQPEDFATYYCQQSYNTPPTFGQGTKVEIK",0.13 µg/mL,0.64 µg/mL,> 100 fold,0.06 µg/mL,0.36 µg/mL,1 µg/mL,0.12 µg/mL,,,,,,,,
"rFluA-20 heavy chain mutant Y100aA (antibody, V domains shown) VH: QVQLQESGPGLVKPSETLSLTCSVSGVSVTSDIYYWTWIRQPPGKGLEWIGYIFYNGDTNYNPSLKSRVTMSIDTSKNEFSLRLTSVTAADTAVYFCARGTEDLGACSSGSCPNHWGQGTLVTVSS VL: DIQMTQSPSSLSASIGDRVTITCRPSQNIRSFLNWFQHKPGKAPKLLIYAASNLQSGVPSRFSGSGSGTEFTLTIRSLQPEDFATYYCQQSYNTPPTFGQGTKVEIK",,,> 100 fold,,,,,,> 100 fold,> 100 fold,> 100 fold,> 100 fold,> 100 fold,> 100 fold,
"rFluA-20 light chain mutant Q55A (antibody, V domains shown) VH: QVQLQESGPGLVKPSETLSLTCSVSGVSVTSDIYYWTWIRQPPGKGLEWIGYIFYNGDTNYNPSLKSRVTMSIDTSKNEFSLRLTSVTAADTAVYFCARGTEDLGYCSSGSCPNHWGQGTLVTVSS VL: DIQMTQSPSSLSASIGDRVTITCRPSQNIRSFLNWFQHKPGKAPKLLIYAASNLASGVPSRFSGSGSGTEFTLTIRSLQPEDFATYYCQQSYNTPPTFGQGTKVEIK",,,,,,,,,,,,,,,0.08 µg/mL

# From US20220387578A1
